In the experiment the target is Human myeloma IgG1 carbamylated with 0.1 M KCNO for 3 h, heat-aggregated (human). The experiment can be described thus: ELISA.

In turn, “C1q, the first component of the classical complement pathway (complex)” displayed a percent decrease in the deposition of C1q against native IgG1 of 60%.

The record behind these values is PMC4232992.
